The values that follow come from PMC4594993.

The target in the assay is extracellular domain of basigin (CD147-ED). Nature of the assay: SPR; ProteOn XPR36, CD147-ED immobilised on an activated GLC chip; CD98-ED injected at 0, 3, 1.5, 0.75, 0.375, 0.1875 uM, association 180 s, dissociation 600 s; 1:1 binding model. Background: Surface plasmon resonance follows binding to a sensor surface in real time, without labels.

For the substance “extracellular domain of CD98 (CD98-ED, residues 111-530 of human 4F2hc) (domain or fragment)”, the Kd was found to be 187 nM.

A word on the Kd: it is a measure of binding affinity in units of concentration. Read a high Kd as lower affinity.
